Laboratory results: US20240219403A1, “METHODS FOR INHIBITING KRAS ONCOPROTEIN THROUGH ENHANCED GTPASE ACTIVITY” (Memorial Sloan-Kettering Cancer Center, priority 2021, published 2024)

B1: NF1: canonical RAS-GAP; recombinant NF1 GAP related domain (1198-1530aa) (protein)
chain: ETVLADRFERLVELVTMMGDQGELPIAMALANVVPCSQWDELARVLVTLFDSRHLLYQLLWNMFSKEVELADSMQTLFRGNSLASKIMTFCFKVYGATYLQKLLDPLLRIVITSSDWQHVSFEVDPTRLEPSESLEENQRNLLQMTEKFFHAIISSSSEFPPQLRSVCHCLYQATCHSLLNKATVKEKKENKKSVVSQRFPQNSIGAVGSAMFLRFINPAIVSPYEAGILDKKPPPRIERGLKLMSKILQSIANHVLFTKEEHMRPFNDFVKSNFDAARRFFLDIASDCPTSDAVNHSLSFISDGNVLALHRLLWNNQEKIGQYLSSNRDHKA
modifications: left off: small tags and cut ends
B2: RASA1: canonical RAS-GAP (protein)
chain: MEKIMPEEEYSEFKELILQKELHVVYALSHVCGQDRTLLASILLRIFLHEKLESLLLCTLNDREISMEDEATTLFRATTLASTLMEQYMKATATQFVHHALKDSILKIMESKQSCELSPSKLEKNEDVNTNLTHLLNILSELVEKIFMASEILPPTLRYIYGCLQKSVQHKWPTNTTMRTRVVSGFVFLRLICPAILNPRMFNIISDSPSPIAARTLILVAKSVQNLANLVEFGAKEPYMEGVNPFIKSNKHRMIMFLDELGNVPELPDTTEHSRTDLSRDLAALHEICVAHSDELRTLSNERGAQQHVLKKLLAITELLQQKQNQYTKTNDVR
B3: RGS4: regulator of G protein signaling 4, RGS family member (protein)
chain: MCKGLAGLPASCLRSAKDMKHRLGFLLQKSDSCEHNSSHNKKDKVVICQRVSQEEVKKWAESLENLISHECGLAAFKAFLKSEYSEENIDFWISCEEYKKIKSPSKLSPKAKKIYNEFISVQATKEVNLDSCTREETSRNMLEPTITCFDEAQKKIFNLMEKDSYRRFLKSRFYLDLVNPSSCGAEKQKGAKSSADCASLVPQCA

target: T1, KRAS^G12C (Homo sapiens, UniProt P01116, G12C); test: GTPase assays of purified GTP-loaded KRAS^G12C incubated with GAP proteins (γ-phosphate, α-phosphate, continuous phosphate release); type: biochemical; conditions: purified proteins
T1 construct: endogenous in cells; host or cells: H358, H2122, H2030, SW1573 (KRAS G12C-mutant lung cancer lines, ATCC)
Protocol: GTP[γ^32P] hydrolysis assay. KRAS proteins (0.5 μg) were reacted with 0.04 μM GTP[γ^32P] (6000 Ci/mmol; PerkinElmer Life Sciences) in 100 μL loading buffer (50 mM HEPES, pH 7.5, 50 mM NaCl, 1 mM DTT, 0.1 mM EGTA, 10 mM EDTA, and 1 mg/mL BSA) for 10 min at 30° C. (5, 40). Loading reactions were stopped by placing on ice and adding MgCl2 to a final concentration of 20 mM. The GTPase assays were performed at 30° C. in 100 μL mixtures containing 20 nM of loaded KRAS and either hydrolysis buffer (25 mM HEPES pH 7.5, 50 mM NaCl, 1 mM DTT, 1 mM MgCl2 and 1 mg/mL BSA) alone, or in combination with WCE or purified RGS3 (0.08-0.4 μg/μL). Equimolar comparisons of NF1, RASA1 and RGS3 were carried out using the continuous hydrolysis assay (see below). Reactions were stopped at the indicated time by filtering through 0.45-μm nitrocellulose membrane filters. The filters were washed 3 times with 0.2 mL of ice-cold hydrolysis buffer, air dried, and processed by autoradiography. Reaction rates were determined by fitting an exponential curve to the data, which was normalized to the baseline value. For the determination of protein stability, the hydrolysis reactions were stopped by boiling at 100° C. for 10 min in Laemmli buffer. The samples were then subjected to SDS-PAGE followed by Coomasie staining (CBB) or immunoblotting with a His-specific antibody.
GTP[α^32P] hydrolysis assay. KRAS proteins were loaded with GTP[α^32P] (3000 Ci/mmol; PerkinElmer Life Sciences) and subjected to the hydrolysis reaction as indicated above. Upon completion of the hydrolysis reaction and immobilization of KRAS-nucleotide complexes on nitrocellulose membranes, the nucleotides were eluted by incubating with elution buffer (50 mM HEPES pH 7.5, 50 mM NaCl, 1 mM DTT, 0.1 mM EGTA, 0.1% SDS, 10 mM EDTA, 1 mM GTP and 1 mM GDP) for 3 min at 85° C. […]
Continuous hydrolysis assay (two-step detection of inorganic phosphate). […] The reaction was monitored by reading the absorbance at 360 nm every 10 to 20 s for ˜16-60 min at room temperature. […]

effect on GTP-hydrolysis by KRAS^G12C	Molecule
some activity	B1
no measurable effect	B2
enhance the KRAS GTPase activity	B3
